We go through 35 sequences from the supplement of paper PMC12764529.

± gives the half width of the 95% confidence interval.

Series [1] can be described thus: folding stability dG unfold from trypsin proteolysis; higher = more stable. The method, boiled down:
(§1)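 Mini-proteins designed to be under 80 residues and free of cysteine were carried in a PA-tagged cDNA display construct and digested with trypsin and with chymotrypsin. Each protease was applied at 11 threefold-diluted concentrations, alongside a no-protease condition, before sequencing. K50 came from Bayesian fitting of the sequencing counts, and unfolding free energy was obtained by comparing it with a sequence-predicted unfolded-state K50 and a shared folded-state K50, for each protease separately or for both together. Designs were retained only if their AlphaFold2 dimer inter-PAE exceeded 15.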

Series [2] in a line: folding stability dG unfold (combined trypsin and chymotrypsin); higher = more stable. The method, boiled down:
as §1

Series [3] is described as follows: folding stability dG unfold from chymotrypsin proteolysis; higher = more stable. Put shortly:
as §1

Take “SAGGMTASSTTLPPSGITSQTTTDPATGVTTTTTRYPDGTVTTTTTTALPPPAAATTTTTTALPGSAAASAG [r5_766_JUSTAS]”: the “folding stability dG unfold” value in series [1] came to 1.93 ± 0.12 kcal/mol; in series [2], 1.77 ± 0.086 kcal/mol; in series [3], 1.68 ± 0.07 kcal/mol.
Taken in the same sequence, the figures for “SAGGMTETITGEFDDEEEAIAYAKKIVKEKYPNKNVTMEIETTYDPKTGKYKVTATITIPDEGEEHHSAGGS [r8_17_JUSTAS]” were 4.72 ± 0.35 kcal/mol, 5.94 ± 0.37 kcal/mol and 5.61 ± 0.18 kcal/mol.
Taken in the same sequence, the figures for “SAGGMTFSGVTREQALAIAKALEEEGYVLERVEVVEFPEDGTVRALVVVRDPETDEPLAEIELDIKPSAGGS [r16_750_TrMRF]” were 1.53 ± 0.017 kcal/mol, 1.7 ± 0.055 kcal/mol and 1.81 ± 0.036 kcal/mol.
Taken in the same sequence, the figures for “SAGGMTIEKEDGKYRITITINGKTYTFTIPKELENKTEEEIAAELAAELAEKFGLKEITEIKIEKVPSAGGS [r8_402_TrROS_Hall]” were 2.38 ± 0.096 kcal/mol, 3.14 ± 0.1 kcal/mol and 3.559 ± 0.025 kcal/mol.
For “SAGGMTIELTIVAETEEEAEKAAEELARKLAELYPDLKVKVTVEKVEVKDEETGKTYLVYKVRIEIEPSAGG [r13_545_TrROS_Hall]”, the “folding stability dG unfold” value in series [1] was found to be 4.47 ± 0.19 kcal/mol; in series [2] it was 4.95 ± 0.11 kcal/mol; in series [3], 4.96 ± 0.11 kcal/mol.
Take “SAGGMTILFEADSLEEARQAVEDLLRDLGIPAIAERITVEERTFRLPAGPGTRRFVLVTIDLRLEPPSAGGS [r16_587_TrMRF]”: the “folding stability dG unfold” value in series [1] turned out to be 2.68 ± 0.031 kcal/mol; in series [2], 2.62 ± 0.034 kcal/mol; in series [3] it was 2.522 ± 0.021 kcal/mol.
Taken in the same sequence, the figures for “SAGGMTITIPPSVPDADVERIVEEAEATFPQPVTLTRDPGRGRWTLTFDGPEDERREAIEALAARLASAGGS [r16_227_JUSTAS]” were 0.0735 ± 0.14 kcal/mol, 0.434 ± 0.12 kcal/mol and 0.565 ± 0.19 kcal/mol.
Consider “SAGGMTITIPVTESGSLEEALALAERVAEEARAAGLEEVTITVTVYDPANGEVLYTKTRRVPVRPEASAGGS [r8_33_JUSTAS]”, for which the results for the “folding stability dG unfold” value in series [1], in series [2] and in series [3] were 2.03 ± 0.032 kcal/mol, 2.21 ± 0.031 kcal/mol and 2.274 ± 0.0077 kcal/mol, respectively.
For “SAGGMTIVEKDGKLVLKITVTVPPGTTVEELKNALKELFGVEEVKVVKIEKNENGEITITVEAVFPKSAGGS [r16_234_TrROS_Hall]” the same measures were 2.59 ± 0.12 kcal/mol, 3.03 ± 0.11 kcal/mol and 3.31 ± 0.13 kcal/mol.
On to “SAGGMTIVLPNGITLTFYPDRTVTATVDFPGRPLTLTLDAASLAEAVAAVERAAAEWAAPAPPVVDLSSAGG [r13_896_TrMRF]”, for which the “folding stability dG unfold” value came to 2.56 ± 0.042 kcal/mol in series [1], 2.72 ± 0.042 kcal/mol in series [2] and 2.824 ± 0.013 kcal/mol in series [3].
For “SAGGMTKTVTVTIEIDVPPGVTVDELIEKLKELAEKLGLTVKVTSVTVEEVDGKLVVTVEVEIEPPEPSAGG [r13_351_TrROS_Hall]” the same measures were 2.58 ± 0.25 kcal/mol, 2.5 ± 0.31 kcal/mol and 2.6 ± 0.18 kcal/mol.
For the sequence “SAGGMTLITIEHPDGEVIEFELPGATEEEAEAIAEEIAKRHDPGKVKVTFEKVPEKGVDPTKPVAVKSAGGS [r8_167_JUSTAS]”, the “folding stability dG unfold” value was -0.128 ± 0.073 kcal/mol in series [1], 0.917 ± 0.099 kcal/mol in series [2] and 1.39 ± 0.038 kcal/mol in series [3].
With “SAGGMTLRIVLPEEEAEKLVEELKKIFPGAEIKVKKVEYNEETGEKLVVLEIKFKSKEEAEKAKKLLESAGG [r13_539_TrROS_Hall]”, the entries for the “folding stability dG unfold” value in series [1], in series [2] and in series [3] were 3.54 ± 0.1 kcal/mol, 3.73 ± 0.083 kcal/mol and 3.8 ± 0.12 kcal/mol, respectively.
Take “SAGGMTLTLTGPEEVVDDLLERLREEFPDVTVEPTAVSYDPATGLVTVPVRVVTEDPAVVAAIRAALSSAGG [r13_539_JUSTAS]”: the “folding stability dG unfold” value in series [1] was determined as 4.08 ± 0.091 kcal/mol; in series [2], 3.79 ± 0.065 kcal/mol; in series [3], 3.562 ± 0.03 kcal/mol.
For “SAGGMTLTLTIKVKTTTVEKDAATGKETVRTETRTLTVTIEAESEEEALAALKKLLEELGFEIVEVTSAGGS [r16_459_TrROS_Hall]” the same measures were 3.99 ± 0.27 kcal/mol, 4.89 ± 0.28 kcal/mol and 5.1 ± 0.22 kcal/mol.
In the case of “SAGGMTPAVTETTIELPASDPEAAIAALRAAGWELLARERGPDGSVRMVFAAPTRRVTVDFVGPAAASAGGS [r16_170_JUSTAS]”, the “folding stability dG unfold” value amounted to 1.06 ± 0.014 kcal/mol in series [1], 1.71 ± 0.032 kcal/mol in series [2] and 2.03 ± 0.039 kcal/mol in series [3].
As for “SAGGMTPEELREKAKKLAEELAKKLKEKYPNVKVEVEVDEETKKVKIKVKNKKTGKTYEITINLEELLSAGG [r13_354_TrROS_Hall]”, the entries for the “folding stability dG unfold” value in series [1], in series [2] and in series [3] were 3.85 ± 0.47 kcal/mol, 4.09 ± 0.42 kcal/mol and 3.94 ± 0.22 kcal/mol, respectively.
For “SAGGMTRVLELTVPVDVIGPEELKALLEALAEDAEVEFEIGPDGLLRVRVTVDVPPDPDAPPDLDGESAGGS [r16_535_TrMRF]” the same measures were 1.82 ± 0.045 kcal/mol, 2.33 ± 0.11 kcal/mol and 2.4 ± 0.099 kcal/mol.
For “SAGGMTSTLTVTLTVSPSTSPEEAAERAAEALEAAHPDRTVVIESITVTPATGKVVATIKVVGDTGASAGGS [r8_26_JUSTAS]” the same measures were 1.53 ± 0.055 kcal/mol, 1.39 ± 0.07 kcal/mol and 1.18 ± 0.029 kcal/mol.
“SAGGMTTTTTFDGPTDEAFDLPSGVKVEPEPATGGYRVELPPGREVEVTVERSTDPGTVTWTFTFKESAGGS [r16_122_JUSTAS]”: the “folding stability dG unfold” value in series [1] is 0.3 ± 0.036 kcal/mol; in series [2] it was 0.544 ± 0.078 kcal/mol; in series [3], 0.531 ± 0.16 kcal/mol.
As to “SAGGMTTVTTTFTMSSEELKKFLEEKFGREVTKEEIIELIPKEKKIDVSESPQPNGTVKYTITITIEKSAGG [r13_869_JUSTAS]”, the “folding stability dG unfold” value in series [1] turned out to be 1.99 ± 0.099 kcal/mol; in series [2], 2.44 ± 0.16 kcal/mol; in series [3], 2.61 ± 0.044 kcal/mol.
For the sequence “SAGGMTVERVPGSGVYTLTFPDGSTETLEIPPEENAVVYAKEGAGTVTVKLAPPDDPEALAAAAALSSAGGS [r16_623_JUSTAS]”, the results for the “folding stability dG unfold” value in series [1], in series [2] and in series [3] were -0.344 ± 0.083 kcal/mol, 0.15 ± 0.066 kcal/mol and 0.357 ± 0.069 kcal/mol, respectively.
Consider “SAGGMTVSVTADGSSYTATVKLPDGTTLTVPFTSLEELATQVREEYEKAFPDVPLERLVLEDISPTAPSAGG [r13_887_JUSTAS]”, for which the “folding stability dG unfold” value was determined as 1.77 ± 0.031 kcal/mol in series [1], 2.93 ± 0.036 kcal/mol in series [2] and 3.344 ± 0.021 kcal/mol in series [3].
For “SAGGMTVTVLEVTEEEVIIDDKKEKIITITIKLPDGTEITVTLSTSEIEAKGLTKEEAVEYIAKKLLSAGGS [r16_625_JUSTAS]” the same measures were 3.55 ± 0.085 kcal/mol, 3.99 ± 0.078 kcal/mol and 4.16 ± 0.058 kcal/mol.
Turning to “SAGGMVEITATVGSPDPSLTDEEIAERILKELGLDPEIVEVTFLERRLVPDAAGRVRVVVEMKFLVPEKSAG [r5_528_JUSTAS]”, the “folding stability dG unfold” value in series [1] worked out at 4.77 ± 0.21 kcal/mol; in series [2], 4.73 ± 0.19 kcal/mol; in series [3], 4.26 ± 0.16 kcal/mol.
Taken in the same sequence, the figures for “SAGGMVEVTYDPETGTLTILLPSPSGTLGPEAVEAAARLIRELYPEAEVEVEPLPDNTVRLRVRFPGGSAGG [r13_291_TrMRF]” were 4.22 ± 0.093 kcal/mol, 4.96 ± 0.14 kcal/mol and 5.38 ± 0.23 kcal/mol.
Taken in the same sequence, the figures for “SAGGMVILVKDKDGRWRELSEEEIRRLAEELERRYNLEVEEVELEDGERYYLIRIEPPEVPGLSEEELSAGG [r13_790_TrROS_Hall]” were 1.97 ± 0.059 kcal/mol, 2.23 ± 0.21 kcal/mol and 2.15 ± 0.13 kcal/mol.
Taken in the same sequence, the figures for “SAGGMVIRVRFRETNETVTLSPEVLEALKRGDPDALRALPEEQREALARIERVEIRPAPPVRVLPEEESAGG [r13_233_TrROS_Hall]” were 2.63 ± 0.14 kcal/mol, 2.29 ± 0.43 kcal/mol and 1.81 ± 0.14 kcal/mol.
On to “SAGGMVITIPTTTSSIEEAIEAVKKKVEEEGYKVTEIKDIKVSTDPKTGKINVTATVIVEKLPKEEKSAGGS [r16_155_JUSTAS]”, for which the “folding stability dG unfold” value in series [1] was determined as 0.99 ± 0.057 kcal/mol; in series [2] it was 2.55 ± 0.3 kcal/mol; in series [3] it was 2.85 ± 0.22 kcal/mol.
Taken in the same sequence, the figures for “SAGGMVIVFPAPKDISPDELRELIEAEVGPLAEELGLTEASIPIAKVEELPEGSRRVVAVIELRFDGSAGGS [r8_184_TrMRF]” were 0.977 ± 0.027 kcal/mol, 0.718 ± 0.056 kcal/mol and 0.332 ± 0.048 kcal/mol.
For “SAGGMVIVVKTKEEAKKALEELLKKLFPDLKIKKIEIKEVEVEVKKKDGKKVKKKKFIVVKIEIEKESAGGS [r16_267_TrROS_Hall]” the same measures were 2.61 ± 0.1 kcal/mol, 3.05 ± 0.13 kcal/mol and 3.38 ± 0.13 kcal/mol.
Taken in the same sequence, the figures for “SAGGMVKLTVYETPDSYTVTIDLGDKPYTIPVPPGLSPEEAAARAVEELQKAFPDEEVVVESVEYVARSAGG [r13_884_JUSTAS]” were 1.1 ± 0.079 kcal/mol, 1.19 ± 0.068 kcal/mol and 1.24 ± 0.086 kcal/mol.
“SAGGMVNLRLYNPATGEPIDFPVPKDVVEEMLKNGDLAALEALFPGFPIAKVEVDEGEEVPAVPPDEASAGG [r13_629_TrMRF]”: the “folding stability dG unfold” value in series [1] stood at 0.776 ± 0.032 kcal/mol; in series [2], 0.462 ± 0.14 kcal/mol; in series [3] it was 0.0323 ± 0.15 kcal/mol.
For “SAGGMVQISVTEIDPETGLITIEMKFPKGVDDPAKIAAAKAEAEAFAQELEKKLGLPVKVTFTPLPESAGGS [r16_304_JUSTAS]” the same measures were 1.95 ± 0.037 kcal/mol, 1.93 ± 0.043 kcal/mol and 1.9 ± 0.039 kcal/mol.
For “SAGGMVTITLPEVNVEDPEVAEARMEEIAARLRAAGVTVTSASYDPEKGLATITVSAGGLSAAEVLASAGGS [r8_344_JUSTAS]” the same measures were 2.48 ± 0.042 kcal/mol, 2.47 ± 0.037 kcal/mol and 2.455 ± 0.015 kcal/mol.
